Values quoted from earlier work as cited in article PMC10536416.
pKd: −log10 of the molar value. Where two headings read alike, the source gives them in different places.

Experiments:
[1] = target: Amyloid beta 1-42 Abeta 1-42 (Homo sapiens) (UniProt P05067)
[2] = target: Amyloid beta 1-42 Abeta 1-42 (Homo sapiens) (UniProt P05067); remark: listed apart in the source

With “Amyloid beta 1-40 Abeta 1-40 (from UniProt P05067)” as the substance, how does the pKd [1] read?
Its pKd is 6.58.

With “Amyloid beta 1-40 on dextran-coated iron oxide nanoparticles Abeta 1-40 (from UniProt P05067)” as the substance, how does the pKd [2] read?
The pKd was 6.69.
